Among the data in patent US20240352133A1 are Kd, koff and kon values, retold here.

The experiment deals with Recombinant human his-tagged IGF 1R extracellular domain protein (human) (UniProt P08069). In words: SPR, captured antibody, pH 7.4.

B1: VRDN-03089 (antibody, V domains shown)
VH: QVQLVESGGGVVQPGRSLRLSCAASGFTFSSYGMHWVRQAPGKGLEWVAIIWFDGSSTYYADSVRGRFTISRDNSKNTLYLQMNSLRAEDTAVYYCARELGRRYFDLWGRGTLVTVSS
VL: EIVLTQSPATLSLSPGERATLSCRASQSVSSSYLAWYQQKPGQAPRLLIYDASKRATGIPARFSGSGSGTDFTLTISSLEPEDFAVYYCQQRSKWPPWTFGQGTKVEIK
For B1, the Kd (usually a measure of binding affinity in units of concentration) was 236 nM; the koff – broadly, the first-order rate constant of dissociation – is 0.0173 s⁻¹; the kon (as a rule, the second-order rate constant of association) came to 73300 M⁻¹ s⁻¹.

B2: VRDN-03117 (antibody, V domains shown)
VH: EVQLVESGGGVVQPGRSLRLSCAASGFTFSSYSMHWVRQAPGKGLEWVAIIWFDGSNKYYADSVKSRFTISRDNSKNTLYLQMNSLRAEDTAVYYCARELGRRYFDIWGQGTLVTVSS
VL: EIVMTQSPATLSVSPGERATLSCRASQGVSSYLAWYQQKPGQAPRLLIYGASTRATGIPARFSGSGSGTEFTLTISSLQSEDFAVYYCQQRSRWPPWTFGQGTKLEIK
B2: the Kd stood at 8.1 nM, the koff was 0.00391 s⁻¹ and the kon came out at 483000 M⁻¹ s⁻¹.

B3: VRDN-03131 (antibody, V domains shown)
VH: EVQLVESGGGVVQPGRSLRLSCAASGFTFSSYSMHWVRQAPGKGLEWVAIIWFDGSEKYYVDSVKSRFTISRDNSKNTLYLQMNSLRAEDTAVYYCARELGRRYFDIWGQGTLVTVSS
VL: EIVMTQSPATLSVSPGERATLSCRASQGVSSNLAWYQQKPGQAPRLLIYGASTRATGIPARFSGSGSGTEFTLTISSLQSEDFAVYYCQQRSRWPPWTFGGGTKLEIK
In the case of B3, the Kd was 16.2 nM, the koff came to 0.00141 s⁻¹ and the kon came to 86900 M⁻¹ s⁻¹.

B4: VRDN-03124 (antibody, V domains shown)
VH: EVQLVESGGGVVQPGRSLRLSCAASGFTFDDYTMHWVRQAPGKGLEWVAIIWFDGSSKYYADSVKGRFTISRDNSKNTLYLQMNSLRAEDTAVYYCARELGRRYFDIWGQGTLVTVSS
VL: EIVMTQSPATLSVSPGERATLSCRASQGVSSYLAWYQQKPGQAPRLLIYGASTRATGIPARFSGSGSGTEFTLTISSLQSEDFAVYYCQQRSRWPPWTFGQGTKLEIK
Take B4: the Kd came out at 1.84 nM, the koff was found to be 0.000157 s⁻¹ and the kon is 85200 M⁻¹ s⁻¹.

B5: VRDN-03129 (antibody, V domains shown)
VH: EVQLVESGGGVVQPGRSLRLSCAASGFTFSSYSMHWVRQAPGKGLEWVAIIWFDGSNKYYADSVKSRFTISRDNSKNTLYLQMNSLRAEDTAVYYCARELGRRYFDIWGQGTLVTVSS
VL: EIVMTQSPATLSVSPGERATLSCRASQGVSSNLAWYQQKPGQAPRLLIYGASTRATGIPARFSGSGSGTEFTLTISSLQSEDFAVYYCQQRSRWPPWTFGGGTKLEIK
As to B5, the Kd stood at 11 nM, the koff amounted to 0.00709 s⁻¹ and the kon worked out at 646000 M⁻¹ s⁻¹.

B6: VRDN-03132 (antibody, V domains shown)
VH: EVQLVESGGGVVQPGRSLRLSCAASGFTFSSYSMHWVRQAPGKGLEWVAVIWYDGSSKYYADSVKGRFTISRDNSKNTLYLQMNSLRAEDTAVYYCARELGRRYFDIWGQGTLVTVSS
VL: EIVMTQSPATLSVSPGERATLSCRASQGVSSNLAWYQQKPGQAPRLLIYGASTRATGIPARFSGSGSGTEFTLTISSLQSEDFAVYYCQQRSRWPPWTFGGGTKLEIK
On to B6, for which the Kd stood at 10.1 nM, the koff worked out at 0.004 s⁻¹ and the kon was found to be 395000 M⁻¹ s⁻¹.

B7: VRDN-03119 (antibody, V domains shown)
VH: EVQLVESGGGVVQPGRSLRLSCAASGFTFSSYSMHWVRQAPGKGLEWVAIIWFDGSEKYYVDSVKSRFTISRDNSKNTLYLQMNSLRAEDTAVYYCARELGRRYFDIWGQGTLVTVSS
VL: EIVMTQSPATLSVSPGERATLSCRASQGVSSYLAWYQQKPGQAPRLLIYGASTRATGIPARFSGSGSGTEFTLTISSLQSEDFAVYYCQQRSRWPPWTFGQGTKLEIK
Regarding B7, the Kd turned out to be 9.78 nM, the koff worked out at 0.00153 s⁻¹ and the kon came to 157000 M⁻¹ s⁻¹.

B8: VRDN-03118 (antibody, V domains shown)
VH: EVQLVESGGGVVQPGRSLRLSCAASGFTFSSYSMHWVRQAPGKGLEWVAIIWFDGSSKYYVDSVKSRFTISRDNSKNTLYLQMNSLRAEDTAVYYCARELGRRYFDIWGQGTLVTVSS
VL: EIVMTQSPATLSVSPGERATLSCRASQGVSSYLAWYQQKPGQAPRLLIYGASTRATGIPARFSGSGSGTEFTLTISSLQSEDFAVYYCQQRSRWPPWTFGQGTKLEIK
On to B8, for which the Kd was 1.08 nM, the koff is 0.000107 s⁻¹ and the kon turned out to be 98600 M⁻¹ s⁻¹.

B9: VRDN-03120 (antibody, V domains shown)
VH: EVQLVESGGGVVQPGRSLRLSCAASGFTFSSYSMHWVRQAPGKGLEWVAVIWYDGSSKYYADSVKGRFTISRDNSKNTLYLQMNSLRAEDTAVYYCARELGRRYFDIWGQGTLVTVSS
VL: EIVMTQSPATLSVSPGERATLSCRASQGVSSYLAWYQQKPGQAPRLLIYGASTRATGIPARFSGSGSGTEFTLTISSLQSEDFAVYYCQQRSRWPPWTFGQGTKLEIK
As for B9, the Kd amounted to 3.96 nM, the koff stood at 0.00128 s⁻¹ and the kon worked out at 322000 M⁻¹ s⁻¹.

B10: VRDN-03091 (antibody, V domains shown)
VH: QVQLVESGGGVVQPGRSLRLSCAASGFTFSSYGMHWVRQAPGKGLEWVAIIWFDGSSTYYADSVRGRFTISRDNSKNTLYLQMNSLRAEDTAVYYCARELGRRYFDLWGRGTLVTVSS
VL: EIVLTQSPATLSLSPGERATLSCGASQSVSSSYLAWYQQKPGQAPRLLIYDASKRATGIPARFSGSGSGTDFTLTISSLEPEDFAVYYCQQRSKWPPWTFGQGTKVEIK
Consider B10, for which the Kd was determined as 11 nM, the koff came out at 0.00902 s⁻¹ and the kon came out at 819000 M⁻¹ s⁻¹.

B11: VRDN-03130 (antibody, V domains shown)
VH: EVQLVESGGGVVQPGRSLRLSCAASGFTFSSYSMHWVRQAPGKGLEWVAIIWFDGSSKYYVDSVKSRFTISRDNSKNTLYLQMNSLRAEDTAVYYCARELGRRYFDIWGQGTLVTVSS
VL: EIVMTQSPATLSVSPGERATLSCRASQGVSSNLAWYQQKPGQAPRLLIYGASTRATGIPARFSGSGSGTEFTLTISSLQSEDFAVYYCQQRSRWPPWTFGGGTKLEIK
Take B11: the Kd worked out at 2.72 nM, the koff came out at 0.000275 s⁻¹ and the kon came out at 101000 M⁻¹ s⁻¹.

B12: VRDN-03128 (antibody, V domains shown)
VH: EVQLVESGGGVVQPGRSLRLSCAASGFTFSDYTMHWVRQAPGKGLEWVAIIWFDGSSKYYPGSVKGRFTISRDNSKNTLYLQMNSLRAEDTAVYYCARELGRRYFDIWGRGTLVTVSS
VL: EIVMTQSPATLSVSPGERATLSCRASQGVSSNLAWYQQKPGQAPRLLIYGASTRATGIPARFSGSGSGTEFTLTISSLQSEDFAVYYCQQRSRWPPWTFGGGTKLEIK
On to B12, for which the Kd was found to be 7.3 nM, the koff was 0.00241 s⁻¹ and the kon came out at 331000 M⁻¹ s⁻¹.

B13: VRDN-03116 (antibody, V domains shown)
VH: EVQLVESGGGVVQPGRSLRLSCAASGFTFSDYTMHWVRQAPGKGLEWVAIIWFDGSSKYYPGSVKGRFTISRDNSKNTLYLQMNSLRAEDTAVYYCARELGRRYFDIWGRGTLVTVSS
VL: EIVMTQSPATLSVSPGERATLSCRASQGVSSYLAWYQQKPGQAPRLLIYGASTRATGIPARFSGSGSGTEFTLTISSLQSEDFAVYYCQQRSRWPPWTFGQGTKLEIK
For B13, the Kd is 4.3 nM, the koff is 0.00091 s⁻¹ and the kon came out at 212000 M⁻¹ s⁻¹.

B14: VRDN-03126 (antibody, V domains shown)
VH: EVQLVESGGGVVQPGRSLRLSCAASGFTFDDYTMHWVRQAPGKGLEWVAVIWYDGSSKYYADSVKGRFTISRDNSKNTLYLQMNSLRAEDTAVYYCARELGRRYFDIWGQGTLVTVSS
VL: EIVMTQSPATLSVSPGERATLSCRASQGVSSYLAWYQQKPGQAPRLLIYGASTRATGIPARFSGSGSGTEFTLTISSLQSEDFAVYYCQQRSRWPPWTFGQGTKLEIK
Consider B14, for which the Kd worked out at 8.7 nM, the koff turned out to be 0.00297 s⁻¹ and the kon was determined as 341000 M⁻¹ s⁻¹.

B15: VRDN-03121 (antibody, V domains shown)
VH: EVQLVESGGGVVQPGRSLRLSCAASGFTFSSYSMHWVRQAPGKGLEWVAVIWYDGSSKYYADSVKSRFTISRDNSKNTLYLQMNSLRAEDTAVYYCARELGRRYFDIWGRGTLVTVSS
VL: EIVMTQSPATLSVSPGERATLSCRASQGVSSYLAWYQQKPGQAPRLLIYGASTRATGIPARFSGSGSGTEFTLTISSLQSEDFAVYYCQQRSRWPPWTFGQGTKLEIK
Take B15: the Kd stood at 4.27 nM, the koff is 0.000486 s⁻¹ and the kon came to 114000 M⁻¹ s⁻¹.

B16: VRDN-03125 (antibody, V domains shown)
VH: EVQLVESGGGVVQPGRSLRLSCAASGFTFDDYAMHWVRQAPGKGLEWVAVIWYDGSSKYYADSVKGRFTISRDNSKNTLYLQMNSLRAEDTAVYYCARELGRRYFDIWGQGTLVTVSS
VL: EIVMTQSPATLSVSPGERATLSCRASQGVSSYLAWYQQKPGQAPRLLIYGASTRATGIPARFSGSGSGTEFTLTISSLQSEDFAVYYCQQRSRWPPWTFGQGTKLEIK
As for B16, the Kd worked out at 8.61 nM, the off-rate constant (koff) was found to be 0.00292 s⁻¹ and the kon was found to be 339000 M⁻¹ s⁻¹.

B17: VRDN-03127 (antibody, V domains shown)
VH: EVQLVESGGGVVQPGRSLRLSCAASGFTFSDYTMHWVRQAPGKGLEWVAIIWFDGSSKYYADSVKSRFTISRDNSKNTLYLQMNSLRAEDTAVYYCARELGRRYFDIWGQGTLVTVSS
VL: EIVMTQSPATLSVSPGERATLSCRASQGVSSYLAWYQQKPGQAPRLLIYGASTRATGIPARFSGSGSGTEFTLTISSLQSEDFAVYYCQQRSRWPPWTFGQGTKLEIK
Consider B17, for which the Kd turned out to be 0.573 nM, the koff was 7.48e-05 s⁻¹ and the kon was determined as 131000 M⁻¹ s⁻¹.

B18: VRDN-03123 (antibody, V domains shown)
VH: EVQLVESGGGVVQPGRSLRLSCAASGFTFDDYAMHWVRQAPGKGLEWVAIIWFDGSSKYYADSVKGRFTISRDNSKNTLYLQMNSLRAEDTAVYYCARELGRRYFDIWGQGTLVTVSS
VL: EIVMTQSPATLSVSPGERATLSCRASQGVSSYLAWYQQKPGQAPRLLIYGASTRATGIPARFSGSGSGTEFTLTISSLQSEDFAVYYCQQRSRWPPWTFGQGTKLEIK
Consider B18, for which the Kd is 1.43 nM, the koff is 9.19e-05 s⁻¹ and the kon worked out at 64200 M⁻¹ s⁻¹.

B19: VRDN-03122 (antibody, V domains shown)
VH: EVQLVESGGGVVQPGRSLRLSCAASGFTFSSYSMHWVRQAPGKGLEWVAVIWYDGSSKYYADSVKSRFTISRDNSKNTLYLQMNSLRAEDTAVYYCARELGRRYFDIWGQGTLVTVSS
VL: EIVMTQSPATLSVSPGERATLSCRASQGVSSYLAWYQQKPGQAPRLLIYGASTRATGIPARFSGSGSGTEFTLTISSLQSEDFAVYYCQQRSRWPPWTFGQGTKLEIK
Take B19: the Kd is 4.09 nM, the koff was 0.000455 s⁻¹ and the kon came out at 111000 M⁻¹ s⁻¹.
